Earlier results on one substance are cited in patent EP0759087B1, “COMPOSITIONS AND METHODS FOR TARGETING GENE DELIVERY VEHICLES” (CHIRON CORPORATION, priority 1994, dated 1995).

One may read the pKd as the Kd on a negative log10 scale, so that one unit is a factor of ten.

For the series, the target named is receptor on melanocytes (Homo sapiens, UniProt Q01726). As to conditions: no source given, read-out: receptor affinity (KD).

pKd: −log10 of the molar value. Where no end group is shown, it is not given here.

Sequence of receptor on melanocytes (Q01726 whole entry): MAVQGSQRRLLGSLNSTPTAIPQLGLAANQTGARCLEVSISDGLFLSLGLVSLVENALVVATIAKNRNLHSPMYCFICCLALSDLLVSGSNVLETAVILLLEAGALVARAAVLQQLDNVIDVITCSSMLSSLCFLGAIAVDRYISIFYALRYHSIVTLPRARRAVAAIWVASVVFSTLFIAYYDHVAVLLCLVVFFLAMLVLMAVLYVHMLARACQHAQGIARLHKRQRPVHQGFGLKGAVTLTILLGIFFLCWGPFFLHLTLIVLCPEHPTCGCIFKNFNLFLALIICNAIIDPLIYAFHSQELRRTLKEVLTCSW

On to “S-Y-S-M-E-H-F-R-W-G-L-P-V-NH2 (SYSMEHFRWGLPV-NH2) [MSH, 13 amino acid peptide that is specifically recognized by a receptor on melanocytes]”, for which the pKd is ~8.00.
